Measurements taken from patent publication US20250019437A1.

Key:
[1] = biological target: T1, human TREM2 (triggering receptor expressed on myeloid cells 2) (human) (UniProt Q9NZC2); test: 2nd screen, 10 nM Ab
T1 sequence (looked up): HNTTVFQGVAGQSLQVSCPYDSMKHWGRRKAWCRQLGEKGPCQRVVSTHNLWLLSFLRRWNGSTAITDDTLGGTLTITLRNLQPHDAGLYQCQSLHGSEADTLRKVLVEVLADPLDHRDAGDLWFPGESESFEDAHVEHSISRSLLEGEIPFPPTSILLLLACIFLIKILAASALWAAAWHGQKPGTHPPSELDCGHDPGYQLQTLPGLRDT

[2] = biological target: T1, human TREM2 (triggering receptor expressed on myeloid cells 2) (human); test: 1st screen, 10 nM Ab
[3] = biological target: T1, human TREM2 (triggering receptor expressed on myeloid cells 2) (human); test: 2nd screen, 2 nM Ab

B1: 6E7 antibody affinity modulation variant V86 (antibody, V domains shown)
VH: EVQLVQSGAEVKKPGESLKISCKGSGYSFGSYWLAWVRQMPGKGLEWMGIIYPGDSDTRYSPSFEGQVTISADKSISTAYLQWSSLKASDTAMYFCARSRTFYYDSSDYFDYWGQGTLVTVSS
VL: DIQMTQSPSSVSASVGDRVTITCRASQGISSWLAWYQQKPGKAPKLLIYAASSRQNGVPSRFSGSGSGTDFTLTISSLQPEDFATYFCQQADSFPRTFGQGTKLEIK
- Binding Signal (fold over 6E7 parental antibody) [1]: 5.02 fold
- Binding Signal (fold over 6E7 parental antibody) [2]: 4.8 fold
- Binding Signal (fold over 6E7 parental antibody) [3]: 5.17 fold

B2: 6E7 antibody affinity modulation variant V87 (antibody, V domains shown)
VH: EVQLVQSGAEVKKPGESLKISCKGSGYSFRSYWIAWVRQMPGKGLEWMGIIYPGDSDVRYSPDFQGQVTISADKSISTAYLQWSSLKASDTAMYFCARSRTFYYDSSDYFDYWGQGTLVTVSS
VL: DIQMTQSPSSVSASVGDRVTITCRASQGISSWLAWYQQKPGKAPKLLIYAASSLQWGVPSRFSGSGSGTDFTLTISSLQPEDFATYFCQQADSFPRTFGQGTKLEIK
- Binding Signal (fold over 6E7 parental antibody) [1]: 3.93 fold
- Binding Signal (fold over 6E7 parental antibody) [2]: 3.84 fold
- Binding Signal (fold over 6E7 parental antibody) [3]: 4.86 fold

B3: 6E7 antibody affinity modulation variant V88 (antibody, V domains shown)
VH: EVQLVQSGAEVKKPGESLKISCKGSGYSFGSYWIAWVRQMPGKGLEWMGIIYPGDSDTRYSPSFQGQVTISADKSISTAYLQWSSLKASDTAMYFCARQRTFYYDSSDYFDYWGQGTLVTVSS
VL: DIQMTQSPSSVSASVGDRVTITCRASQGISSWLAWYQQKPGKAPKLLIYAASRLQRGVPSRFSGSGSGTDFTLTISSLQPEDFATYFCQQADSSPRTFGQGTKLEIK
- Binding Signal (fold over 6E7 parental antibody) [1]: 5.3 fold
- Binding Signal (fold over 6E7 parental antibody) [2]: 4.92 fold
- Binding Signal (fold over 6E7 parental antibody) [3]: 5.57 fold

B4: 6E7 antibody affinity modulation variant V89 (antibody, V domains shown)
VH: EVQLVQSGAEVKKPGESLKISCKGSGYSFTSYWIAWVRQMPGKGLEWMGIIYPGDSDTRYSPSFQGQVTISADKSISTAYLQWSSLKASDTAMYFCARQRTFYYDSSDYFDYWGQGTLVTVSS
VL: DIQMTQSPSSVSASVGDRVTITCRASQGISSWLAWYQQKPGKAPKLLIYAASSLQNGVPSRFSGSGSGTDFTLTISSLQPEDFATYFCQQADSHPRTFGQGTKLEIK
- Binding Signal (fold over 6E7 parental antibody) [1]: 1.46 fold
- Binding Signal (fold over 6E7 parental antibody) [2]: 1.33 fold
- Binding Signal (fold over 6E7 parental antibody) [3]: 0.94 fold

B5: 6E7 antibody affinity modulation variant V4 (antibody, V domains shown)
VH: EVQLVQSGAEVKKPGESLKISCKGSGYSFGSYWIAWVRQMPGKGLEWMGIIYPGDSDTRVSPSFQGQVTISADKSISTAYLQWSSLKASDTAMYFCARSRTFYYDSSDYFDYWGQGTLVTVSS
VL: DIQMTQSPSSVSASVGDRVTITCRASQGISSWLAWYQQKPGKAPKLLIYAASRLQNGVPSRFSGSGSGTDFTLTISSLQPEDFATYFCQQADSYPRTFGQGTKLEIK
- Binding Signal (fold over 6E7 parental antibody) [1]: 5.51 fold
- Binding Signal (fold over 6E7 parental antibody) [2]: 6 fold
- Binding Signal (fold over 6E7 parental antibody) [3]: 5.88 fold

B6: 6E7 antibody affinity modulation variant V5 (antibody, V domains shown)
VH: EVQLVQSGAEVKKPGESLKISCKGSGYSFTSYWIAWVRQMPGKGLEWMGTIYPGDSDTRYSPSFQGQVTISADKSISTAYLQWSSLKASDTAMYFCARQRTFYYDSSDYFDYWGQGTLVTVSS
VL: DIQMTQSPSSVSASVGDRVTITCRASQGISSWLAWYQQKPGKAPKLLIYAASSLQNGVPSRFSGSGSGTDFTLTISSLQPEDFATYFCQQADSHPRTFGQGTKLEIK
- Binding Signal (fold over 6E7 parental antibody) [1]: 2.84 fold
- Binding Signal (fold over 6E7 parental antibody) [2]: 2.73 fold
- Binding Signal (fold over 6E7 parental antibody) [3]: 1.25 fold

B7: 6E7 antibody affinity modulation variant V13 (antibody, V domains shown)
VH: EVQLVQSGAEVKKPGESLKISCKGSGYSFGSYWIAWVRQMPGKGLEWMGIIYPGDSDTRYSASFQGQVTISADKSISTAYLQWSSLKASDTAMYFCARGRTFYYDSSDYFDYWGQGTLVTVSS
VL: DIQMTQSPSSVSASVGDRVTITCRASQGISSWLAWYQQKPGKAPKLLIYAASSLQGGVPSRFSGSGSGTDFTLTISSLQPEDFATYFCQQADSMPRTFGQGTKLEIK
- Binding Signal (fold over 6E7 parental antibody) [1]: 1.35 fold
- Binding Signal (fold over 6E7 parental antibody) [2]: 1.31 fold
- Binding Signal (fold over 6E7 parental antibody) [3]: 1.15 fold

B8: 6E7 antibody affinity modulation variant V14 (antibody, V domains shown)
VH: EVQLVQSGAEVKKPGESLKISCKGSGYSFGSYWIAWVRQMPGKGLEWMGIIYPGDQDTRYSPSFQGQVTISADKSISTAYLQWSSLKASDTAMYFCARGRTFYYDSSDYFDYWGQGTLVTVSS
VL: DIQMTQSPSSVSASVGDRVTITCRASQGISSWLAWYQQKPGKAPKLLIYAASRLQNGVPSRFSGSGSGTDFTLTISSLQPEDFATYFCQQADSFPRTFGQGTKLEIK
- Binding Signal (fold over 6E7 parental antibody) [1]: 4.64 fold
- Binding Signal (fold over 6E7 parental antibody) [2]: 4.71 fold
- Binding Signal (fold over 6E7 parental antibody) [3]: 2.57 fold

B9: 6E7 antibody affinity modulation variant V15 (antibody, V domains shown)
VH: EVQLVQSGAEVKKPGESLKISCKGSGYSFASYWIAWVRQMPGKGLEWMGTIYPGDSDTRYSPSFQGQVTISADKSISTAYLQWSSLKASDTAMYFCARSRTFYYDSSDYFDYWGQGTLVTVSS
VL: DIQMTQSPSSVSASVGDRVTITCRASQGISSWLAWYQQKPGKAPKLLIYAASWLQNGVPSRFSGSGSGTDFTLTISSLQPEDFATYFCQQADSYPRTFGQGTKLEIK
- Binding Signal (fold over 6E7 parental antibody) [1]: 4.78 fold
- Binding Signal (fold over 6E7 parental antibody) [2]: 5.23 fold
- Binding Signal (fold over 6E7 parental antibody) [3]: 4.72 fold

B10: 6E7 antibody affinity modulation variant V16 (antibody, V domains shown)
VH: EVQLVQSGAEVKKPGESLKISCKGSGYSMTSYWIAWVRQMPGKGLEWMGIIYPGDGDTRYSPSFQGQVTISADKSISTAYLQWSSLKASDTAMYFCARSRTFYYDSSDYFDYWGQGTLVTVSS
VL: DIQMTQSPSSVSASVGDRVTITCRASQGISSWLAWYQQKPGKAPKLLIYAASNLQNGVPSRFSGSGSGTDFTLTISSLQPEDFATYFCQQADSFPRTFGQGTKLEIK
- Binding Signal (fold over 6E7 parental antibody) [1]: 4.04 fold
- Binding Signal (fold over 6E7 parental antibody) [2]: 4.01 fold
- Binding Signal (fold over 6E7 parental antibody) [3]: 3.57 fold

B11: 6E7 antibody affinity modulation variant V17 (antibody, V domains shown)
VH: EVQLVQSGAEVKKPGESLKISCKGSGYSFGSYWIAWVRQMPGKGLEWMGIIYPGDSDTRYSPSFQGQVTISADKSISTAYLQWSSLKASDTAMYFCARSRTFYYDSSDYFDYWGQGTLVTVSS
VL: DIQMTQSPSSVSASVGDRVTITCRASQGISSWLAWYQQKPGKAPKLLIYAASSRQNGVPSRFSGSGSGTDFTLTISSLQPEDFATYFCQQADSSPRTFGQGTKLEIK
- Binding Signal (fold over 6E7 parental antibody) [1]: 5.51 fold
- Binding Signal (fold over 6E7 parental antibody) [2]: 5.37 fold
- Binding Signal (fold over 6E7 parental antibody) [3]: 4.22 fold

B12: 6E7 antibody affinity modulation variant V24 (antibody, V domains shown)
VH: EVQLVQSGAEVKKPGESLKISCKGSGYSFTSYWIAWVRQMPGKGLEWMGIIYPGDSDVRYSPSFQGQVTISADKSISTAYLQWSSLKASDTAMYFCARSRTFYYDSSDYFDYWGQGTLVTVSS
VL: DIQMTQSPSSVSASVGDRVTITCRASQGISSWLAWYQQKPGKAPKLLIYAASSLQKGVPSRFSGSGSGTDFTLTISSLQPEDFATYFCQQADSFPHTFGQGTKLEIK
- Binding Signal (fold over 6E7 parental antibody) [1]: 2.9 fold
- Binding Signal (fold over 6E7 parental antibody) [2]: 2.64 fold
- Binding Signal (fold over 6E7 parental antibody) [3]: 1.42 fold

B13: 6E7 antibody affinity modulation variant V25 (antibody, V domains shown)
VH: EVQLVQSGAEVKKPGESLKISCKGSGYSFGSYWIAWVRQMPGKGLEWMGLIYPGDSDTRYSPSFQGQVTISADKSISTAYLQWSSLKASDTAMYFCARSRTFYYDSSDYFDYWGQGTLVTVSS
VL: DIQMTQSPSSVSASVGDRVTITCRASQGISSWLAWYQQKPGKAPKLLIYAASSLANGVPSRFSGSGSGTDFTLTISSLQPEDFATYFCQQADSMPRTFGQGTKLEIK
- Binding Signal (fold over 6E7 parental antibody) [1]: 4.7 fold
- Binding Signal (fold over 6E7 parental antibody) [2]: 4.23 fold
- Binding Signal (fold over 6E7 parental antibody) [3]: 3.15 fold

B14: 6E7 antibody affinity modulation variant V26 (antibody, V domains shown)
VH: EVQLVQSGAEVKKPGESLKISCKGSGYSFTSYWIGWVRQMPGKGLEWMGTIYPGDSDTRYSPSFQGQVTISADKSISTAYLQWSSLKASDTAMYFCARQRTMYYDSSDYFDAWGQGTLVTVSS
VL: DIQMTQSPSSVSASVGDRVTITCRASQGISSWLAWYQQKPGKAPKLLIYAASSLQRGVPSRFSGSGSGTDFTLTISSLQPEDFATYFCQQADSYPRTFGQGTKLEIK
- Binding Signal (fold over 6E7 parental antibody) [1]: 3.47 fold
- Binding Signal (fold over 6E7 parental antibody) [2]: 3.57 fold
- Binding Signal (fold over 6E7 parental antibody) [3]: 2.83 fold

B15: 6E7 antibody affinity modulation variant V27 (antibody, V domains shown)
VH: EVQLVQSGAEVKKPGESLKISCKGSGYSFTSYWIAWVRQMPGKGLEWMGIIYPGDSDTRYAPSFQGQVTISADKSISTAYLQWSSLKASDTAMYFCVRSRTFYYDSSDYFDYWGQGTLVTVSS
VL: DIQMTQSPSSVSASVGDRVTITCRASQGISSWLAWYQQKPGKAPKLLIYAASSLQRGVPSRFSGSGSGTDFTLTISSLQPEDFATYFCQQADSFPRTFGQGTKLEIK
- Binding Signal (fold over 6E7 parental antibody) [1]: 5.69 fold
- Binding Signal (fold over 6E7 parental antibody) [2]: 5.5 fold
- Binding Signal (fold over 6E7 parental antibody) [3]: 5.67 fold

B16: 6E7 antibody affinity modulation variant V28 (antibody, V domains shown)
VH: EVQLVQSGAEVKKPGESLKISCKGSGYSFQSYWIAWVRQMPGKGLEWMGTIYPGDSDTRYSPSFQGQVTISADKSISTAYLQWSSLKASDTAMYFCARQRTFFYDSSDYFDYWGQGTLVTVSS
VL: DIQMTQSPSSVSASVGDRVTITCRASQGISSWLAWYQQKPGKAPKLLIYAASSLQSGVPSRFSGSGSGTDFTLTISSLQPEDFATYFCQQADSLPRTFGQGTKLEIK
- Binding Signal (fold over 6E7 parental antibody) [1]: 3.61 fold
- Binding Signal (fold over 6E7 parental antibody) [2]: 3.08 fold
- Binding Signal (fold over 6E7 parental antibody) [3]: 2.63 fold

B17: 6E7 antibody affinity modulation variant V29 (antibody, V domains shown)
VH: EVQLVQSGAEVKKPGESLKISCKGSGYSFKSYWIAWVRQMPGKGLEWMGIIYPGDSDTRYSPSFQGQVTISADKSISTAYLQWSSLKASDTAMYFCARQRTFYYDSSDYFDYWGQGTLVTVSS
VL: DIQMTQSPSSVSASVGDRVTITCRASQGISSWLAWYQQKPGKAPKLLIYAASSLQNGVPSRFSGSGSGTDFTLTISSLQPEDFATYFCQQADSFPRTFGQGTKLEIK
- Binding Signal (fold over 6E7 parental antibody) [1]: 1.67 fold
- Binding Signal (fold over 6E7 parental antibody) [2]: 1.53 fold
- Binding Signal (fold over 6E7 parental antibody) [3]: 0.84 fold
